# Results reported in the supplement of paper PMC12764529.
# ± gives the half width of the 95% confidence interval.
# Legend:
# [1] = folding stability dG unfold from trypsin proteolysis; higher = more stable
# Summary of the method: (§1)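 K50 was inferred by Bayesian fitting of sequencing counts obtained after protease digestion of designed mini-proteins. Unfolding free energy was derived by comparison with a sequence-predicted unfolded-state K50 and a shared folded-state K50, for each protease or both combined. The mini-proteins were under 80 residues, had no cysteine, were carried in a PA-tagged cDNA display construct, and were kept only if AlphaFold2 dimer inter-PAE exceeded 15.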
# [2] = folding stability dG unfold (combined trypsin and chymotrypsin); higher = more stable
# Summary of the method: as §1
# [3] = folding stability dG unfold from chymotrypsin proteolysis; higher = more stable
# Summary of the method: as §1
Sequence,folding stability dG unfold [1] [kcal/mol],folding stability dG unfold [2] [kcal/mol],folding stability dG unfold [3] [kcal/mol]
SAGGSSMINLTITITVKDPSTGKVTTIPLNKKLTPEEIEELVKEIIEKIEKENPDKPIEVLKVEINSAGGSA [r2_59_JUSTAS],3.4 ± 0.21,2.81 ± 0.25,2.48 ± 0.12
SAGGMKIKVTVEVTFPDGTVRTFPVPDATSEEEVRAILAERGFGDLADVPIRITEREPVPAVPPEELLSAGG [r13_493_JUSTAS],1.68 ± 0.033,1.69 ± 0.071,1.76 ± 0.043
SAGGLIIPEEYEIVEKKAEILPDGSLRYTFILRPKSGELLLVEIRYPPDGSIEIEARRLTPEELKKALSAGG [r13_773_TrMRF],3.13 ± 0.076,3.56 ± 0.074,3.71 ± 0.045
SAGGSAGGSNLPAGQEIWFPIEIRIEMEMPVRDNGEPIWRMRMTMEHTIMLSIKVKPASPEDASAGGSAGGS [r20_14_TrROS],3.75 ± 0.31,4.88 ± 0.43,5.11 ± 0.38
SKKPKLKIEIEIPEITNMQPDPDNGKYTMRVPFRIKIEWKDNGKEREVDIPIPMNMTVDDARDQLKDLLKSA [r9_656_TrROS],0.629 ± 0.044,1.1 ± 0.13,1.57 ± 0.16
GLEVKVDITVDPVGGGTRIPVTVSVPGRPIAQATADVDPETGVVNLDLGAESEEERKAALEKLKEAGIKLGS [r1_455_JUSTAS],1.1 ± 0.049,1.35 ± 0.083,1.42 ± 0.054
SAGGSAGSGFEEEAAAAFAASAGAMTLTVVEREPDSYTVATVTRTPGTGAPTVTVTTLSPETLAAASAGGSA [r15_156_JUSTAS],0.904 ± 0.048,0.701 ± 0.12,0.425 ± 0.13
SAGGSKLPKNSKVLIIDLGAPKGIKPNDKVKIPKELIKKIKEKNPNVKFYKEYNIGNKTYIFIVIDSAGGSA [r2_383_TrMRF],1.31 ± 0.067,1.96 ± 0.12,2.39 ± 0.059
SAGGSAGGSKPIKTKATIPLPNGKTITADVEIVVLPDGNILLRVPSGKVILVPPNYPVTFEDASAGGSAGGS [r20_227_TrMRF],1.71 ± 0.025,1.67 ± 0.036,1.62 ± 0.021
SAGGSAGGSAGGKPKKVILIEADTLEEALAAAEALAPPGAKVTVTLVERDGKLYLLVTVDSAGGSAGGSAGG [r7_877_TrROS_Hall],2.16 ± 0.045,3.351 ± 0.028,3.75 ± 0.046
SAGGSAKVTIDTDNGIIKIEVGGKLIAEIEIPPGFPGGIYLEYEPNPPTLKFYIYTKNGPVYINDISAGGSA [r2_399_TrMRF],3.5 ± 0.43,3.69 ± 0.32,3.96 ± 0.17
SAGGSAGGSAGGMMKITIEVDGKKIEITLPPGAELKFDKEKKEIYIRNKKTNEILKLKIKSAGGSAGGSAGG [r7_7_TrROS_Hall],1.9 ± 0.048,2.21 ± 0.11,2.35 ± 0.041
SAGGSAGGSAGGGMSSVSLVKTSTITVGNGTVKLETLSYPDSSFVRTTLPNGKDVVEPLPSAGGSAGGSAGG [r7_655_JUSTAS],-0.561 ± 0.16,-0.089 ± 0.13,0.105 ± 0.1
SAGGMTEELEITTPDNYKIKITKTLNPNTTKPTYTVKIYEKKSGKVLLEKEFSSLEEAEEFIKNGYGSAGGS [r8_450_TrMRF],4.73 ± 0.18,4.65 ± 0.069,4.596 ± 0.042
SAGGGGSTPVSSYSYPLPDGSTATITISSKNPDSDIYSFTVTLSDGTTVPLDVPLSESVEEAIARVLTSAGG [r13_470_JUSTAS],2.31 ± 0.086,2.27 ± 0.092,2.19 ± 0.076
SAGGEKRYLVRVRAYYRFEEGERELDLEVEVTSPEEAKELLEKIATRLRKLYPDRIRIEVEIRPLEESAGGS [r16_475_TrMRF],4.53 ± 0.17,4.94 ± 0.14,5.1 ± 0.12
SAGGSAGGSGGMTPTSRDYVLPNGEKLAVEETFTFPDGSSVTKVLDPKTGTTTTLPASTIASASAGGSAGGS [r12_488_JUSTAS],0.451 ± 0.032,0.394 ± 0.11,0.321 ± 0.13
SAGGSAGGNKSYTVIIRFPMKRKEDPDGEDKKPRPVTIEYTVKSPEDANELKNKLKDNGAEIVPSAGGSAGG [r6_141_TrROS],0.263 ± 0.15,0.531 ± 0.12,0.698 ± 0.12
SAGGSAGGPNYFVRITIKMRKPNGKPIGEFPIWIPFKSKEQARSLADELAQMPGIEKVDIELVPSAGGSAGG [r6_475_TrROS],2.22 ± 0.025,2.53 ± 0.051,2.68 ± 0.031
SPEIKIELVYDEETEELYLEIEIRFPESEEEAIEALKKLLEELGFEVVEIEEIEVEEDGTVRIRVRIRKKSA [r9_876_TrROS_Hall],4.87 ± 0.31,> 6,4.47 ± 0.7
SANEKVTVEVKIRFYFRFPKGQPFPFDITVPVTVEYDPNDPDKAKEEAKEKAIDEAIDEFRERFGYPLPSAG [r14_117_TrROS],1.75 ± 0.13,2.37 ± 0.19,2.72 ± 0.13

Sequence,folding stability dG unfold [1] [kcal/mol],folding stability dG unfold [2] [kcal/mol],folding stability dG unfold [3] [kcal/mol]
SAGGSAGPLERKVIVRTAPYTSPEEGEAYAEETKLAIASKLPESEKVTVEVTWDPETNTVTATIVSSAGGSA [r15_981_JUSTAS],-0.491 ± 0.28,0.722 ± 0.16,1.14 ± 0.092
SAGGSAGGSHRIIFRINSPGMPPRQAADRIADMLQEEHGLKIKGVDIWTYPNGSYWVTITIEPSAGGSAGGS [r12_781_TrROS],2.77 ± 0.055,2.89 ± 0.073,2.98 ± 0.042
SAGGRLVRIKVDIYSPGDGEPHEFEFLLHVDANGSVEIYFPNGKRIRIPPNMKVKIKDIEVLDPDQISAGGS [r16_223_TrROS],2.56 ± 0.089,3.17 ± 0.14,3.45 ± 0.11
SAMLRIRVEYEDGRVEDIVIPLAGEDPPFGKEAVEEAAERIAKEVEEKYGLKNVKTEVEAFPVSPEELLSAG [r14_378_TrMRF],0.326 ± 0.096,0.818 ± 0.1,1.06 ± 0.2
SAMPVFTFPVEIPGPEYTPEEIVAILKEAAAKLNLPVDEEVIRELAEKALAEGTTVADIIEEILKRGLGSAG [r14_364_JUSTAS],3.07 ± 0.094,2.52 ± 0.077,1.88 ± 0.045
SAGGSAGGSAKMEIVLEVDTPEEAKEAAKKLAEELKKKGYKVKVEVKKLKNGKYYVKITVDSAGGSAGGSAG [r3_211_TrROS_Hall],3.33 ± 0.23,4.66 ± 0.33,4.84 ± 0.26
SAGGMPPGYRVVLVTKEVETVTFEKKPGNENEYTTTPKIVPREEVVEVTSPEVLAELEAEGYEVTPASAGGS [r8_482_JUSTAS],0.00788 ± 0.031,-0.0223 ± 0.11,-0.154 ± 0.17
SAGGMLEVTEEPLELGDRPVTRTTITLPDGTVVTVTTEAGTGAMTVTYPDGTTKTVTSEEDALAALLSAGGS [r8_168_JUSTAS],2.66 ± 0.11,2.02 ± 0.094,1.19 ± 0.051
SAGGSAGGSAGGMTITVVTEESPGPFKTVTVTTTTPLPNGTLATTTTTTFLPVSPDEPVSAGGSAGGSAGGS [r10_241_JUSTAS],1.52 ± 0.044,0.983 ± 0.08,0.208 ± 0.27
SAGGSAGGSATLTLELEIEVDGVRFRVRAELRLDEDGRLHLRVEIEVEPLPPPPPLVAEGEELSAGGSAGGS [r20_30_TrROS_Hall],2.88 ± 0.14,4.05 ± 0.3,4.33 ± 0.23
SAGGSAGGSAGPNAVYLGELEVTTRNPDGDRPLRVRVELYLVPTPEGLRLLARVLEVEELSAGGSAGGSAGG [r11_113_TrMRF],2.81 ± 0.052,3.4 ± 0.04,3.644 ± 0.021
SMPKKIIVLEVDEEEIKEFLEKLELGEDTEVKILLSFPDGKTALLEIGPNEIKSIKPIDAIPEKAYIVIASA [r9_849_TrMRF],1.71 ± 0.14,1.08 ± 0.2,0.755 ± 0.14
MKKVKVTITITVPEEDKEKVKELIEKLKEAVPNVKVTSVEFDEKTGKITIVVEMTEEELEELKKALKEALES [r1_443_TrROS_Hall],2.78 ± 0.11,2.06 ± 0.082,1.47 ± 0.036
SMTLTETKVLTTETLSGEEFAKRSGVPVEEIRKSGVKYNVTVTPVEVTYYDPETGKTYKRTSTTVTITPESA [r9_382_JUSTAS],0.354 ± 0.083,0.686 ± 0.073,0.842 ± 0.11
SAGGGIAEILEIREFEDGVEILILTDDLDDPEIIEELIDEIAEELGLPKEKIRAHIIPADIPPLPDEESAGG [r13_430_TrMRF],1.22 ± 0.061,1.04 ± 0.24,1.18 ± 0.1
SAGGSAGGSGGVIDIPVYGEDGEKFIASAPKEVIEKAIKEGKPIEVYVVDDGKIIKKFTISTGSAGGSAGGS [r12_991_TrMRF],-0.0801 ± 0.092,0.0354 ± 0.12,-0.0658 ± 0.17
SAGGSAGGSGSMSTPVTEEITLTLTRTTEDGTEVVITIKVKVVKDPTSDVVTVTEVLSETVEPSAGGSAGGS [r12_358_JUSTAS],2.18 ± 0.051,2.37 ± 0.099,2.54 ± 0.039
SAGGSAGGSDDTAEFEGPVNVTLTLDGKPVNINAWVTRLPPGWFRIVLPDGVIELPGGNLRVGSAGGSAGGS [r12_790_TrMRF],0.84 ± 0.039,1.16 ± 0.051,1.31 ± 0.069
SAGGSAGGSVKPGQEIEVRVELTYDEETGELTIRREVVNKETGELIAEEEITISLEDLPPELLSAGGSAGGS [r12_145_TrROS_Hall],1.83 ± 0.083,1.63 ± 0.076,1.51 ± 0.04
SAGGPNVPIRIRVTIERQDPDGEPKDFEFPIEYPMPPDDPEQAKEQIEELAESIAEKHGYKVEIEIEPSAGG [r13_853_TrROS],-0.664 ± 0.18,-0.627 ± 0.55,-0.45 ± 0.29
SAGGSAGGSAPVFTSPEEAEKYAREKLLREKPESHPDLVVNVNVTVTTEPDGTITIEIDYKESAGGSAGGSA [r18_440_JUSTAS],0.932 ± 0.092,1.29 ± 0.14,1.72 ± 0.086
